{
  "source": "the nanobody polyreactivity screen of Harvey et al. (2022)",
  "data": [
    {"assay": "yeast display, Sf9 membrane polyspecificity reagent, FACS + sequencing; frameworks hold sequencing errors", "method_in_brief": "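Using colony PCR, genes from sorted yeast display clones were amplified, then sequenced on MiSeq at 2 × 250 and filtered by CDR length. The clones had been stained with 10% biotinylated, detergent-solubilized Sf9 membrane reagent for 1 hour at 4 °C and sorted by FACS into low and high (top ~1%) gates on anti-HA and streptavidin fluorescence. Polyreactivity labels come from the gate of origin.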", "values": [
      {"sequence": "QVQLEESGGGLVQAGGSLRLSCAASGRIFHVNAMGWYRPAPGKERELVAAISTSGGRTYYADSVKGRFTISRDNAKNTVYLQMNSLKPEDTAVYYCAKRWPLYVDPTRMDYWGQGTQVTVSS", "polyreactivity (PSR sort gate)": "high polyreactivity"},
      {"sequence": "QVQLEESGGGLVQAGGSLRLSCAASGRIFPRYAMGWYRQAPGKERELVATISSGGSTYYADSVKGRFTISRDNATNTVYLQMNSLTPEDTAVYYCAARKRPYSVINGMDYWGQGTQVTVSS", "polyreactivity (PSR sort gate)": "low polyreactivity"},
      {"sequence": "QVQLEESGGGLVQAGGSLRLSCAASGRIFRPYAMGWYRQAPGKERELVAAISFSGGSTYYADSVKGRFTISRDNAKNTVYLQMNSLKPEDTAVYYCNKDLYRYPGYDYWGQGTQVTVSS", "polyreactivity (PSR sort gate)": "high polyreactivity"},
      {"sequence": "QVQLEESGGGLVQAGGSLRLSCAASGRIFSNNVMGWYRQAPGKERELVATISTDGRTNYADSVKGRFTISRDNAKNTVYLQMNSLKPEDTAVYYCAATGVTILLSSKSDYWGQGTQVTVSS", "polyreactivity (PSR sort gate)": "low polyreactivity"},
      {"sequence": "QVQLEESGGGLVQAGGSLRLSCAASGRIFTGYAMGWYRQAPGKERELVAAIRGSGTSTYYADSVKGRFTISRDNAKNTVYLQMNSLKPEDTAVFYCAADWYTSRGWDWYDYWGQGTQVTVSS", "polyreactivity (PSR sort gate)": "high polyreactivity"},
      {"sequence": "QVQLEESGGGLVQAGGSLRLSCAASGRIFVRNGMGWYRQAPGKESELVPAITSAGSTNYADSVKGRFTISRDNAKNTVYLQMNSLIPEDTAVYYCATEPSGYYDSYYYFTYSDNYWGQGTQVTVSS", "polyreactivity (PSR sort gate)": "low polyreactivity"},
      {"sequence": "QVQLEESGGGLVQAGGSLRLSCAASGRIFWGYAMGWYRQAPGKERELVAGITYSGGSTYYADSVKGRFTISRDNAKNTVYLQMNSLKPEDTAVYYCAADATPGRGVDYWGQGTQVTVSS", "polyreactivity (PSR sort gate)": "high polyreactivity"},
      {"sequence": "QVQLEESGGGLVQAGGSLRLSCAASGRIFYFNTKGWYRQAPGKERELVAAISRSGTSTYYADSVKGRFTISRDFAKNTVYLQMNSLKPEDTAVYYCAARFGVKRGQYDYWGQGTQVTVSS", "polyreactivity (PSR sort gate)": "high polyreactivity"},
      {"sequence": "QVQLEESGGGLVQAGGSLRLSCAASGRIFYHYAMGWYRTAPGKERELVAAITSSGAGTYYADSVKGRFTISRDNAKNTVYLQMNSLKPEDTAVYYCAADASRRYRYWYDYWGQGTQVTVSS", "polyreactivity (PSR sort gate)": "high polyreactivity"},
      {"sequence": "QVQLEESGGGLVQAGGSLRLSCAASGRIFYPYAMGWYRQAPGKERELVAAISRSGGSTYYADSVKGRFTISRDNAKNTVYLQMNSLKPEDTAVYYCATGFYRAISHHGYDYWGQGTQVTVSS", "polyreactivity (PSR sort gate)": "low polyreactivity"},
      {"sequence": "QVQLEESGGGLVQAGGSLRLSCAASGRILSLYAMGRYRQAPGKERELVAAIRWSGSRTYYADSVKGRFTISRDNAKNTVYLQMNSLKPEDTAVYYCAAESHYPHKPGSDYWGQGTQVTVSS", "polyreactivity (PSR sort gate)": "high polyreactivity"},
      {"sequence": "QVQLEESGGGLVQAGGSLRLSCAASGRTFDIYAMGWYRQATGKERELVAAISSGGSTYYADSVKGRFTISRDNAKNTVFLQMNSLKPEDTAVYYCAVRWYDQVSRRGIGYYWGQGTQVTVSS", "polyreactivity (PSR sort gate)": "low polyreactivity"},
      {"sequence": "QVQLEESGGGLVQAGGSLRLSCAASGRTFSSYAMVWYRQAPGKERELVAAINSGGSTNYADSVKGRFTISRDNAKNTVYLQMNSLKPEDTAVYYCNAVTFWGLGYDYWGQGTQVTVSS", "polyreactivity (PSR sort gate)": "low polyreactivity"},
      {"sequence": "QVQLEESGGGLVQAGGSLRLSCAASGRTFVYYAMGWYRTATGKQRELVAAITSSGSRTYYADSVKGRFTFSRDNAKNTVYLQMNSLKPEDTAVYYCAADYVAHGDYRVLYDYWGQGTQVTVSS", "polyreactivity (PSR sort gate)": "low polyreactivity"},
      {"sequence": "QVQLEESGGGLVQAGGSLRLSCAASGRTITNYAMGWYRQAPGKERELVASINSGGSTSYADSVKGRFTISRDNAKNTVYLQMNSLKPEDTAVYYCNKRYLKFWGHQYGYWGQGTQVTVSS", "polyreactivity (PSR sort gate)": "high polyreactivity"},
      {"sequence": "QVQLEESGGGLVQAGGSLRLSCAASGRTSLAYAMGWYRQATGKEMELVAGITSGGNTNYADSVKGRFTISCDNAKNTVYLQMNSLKPEDTAVYYCNKKKRWQWYSDSVLDYLGFYSWGQGTQVTVSS", "polyreactivity (PSR sort gate)": "low polyreactivity"}
    ]}
  ]
}
